Assay results taken from patent US9782486B2, “Albumin conjugated temperature and pH-sensitive multi-block copolymer, a method of preparation thereof and drug delivery system using the same” (Research & Business Foundation Sungkyunkwan University, priority 2014, dated 2017).
Read-outs that look alike come from different tables or passages of the source.

Assays:
[1] = In vivo lysozyme release, lysozyme in blood serum (ELISA); set-up: species or system male SD rats
Method: (§1) In order to examine the in vivo release of lysozyme, a sample solution loaded with 250 μL of lysozyme was injected to male SD rats (three rats per group). At predetermined times, blood samples were collected from the caudal vein, centrifuged to obtain blood sera, and stored them at −21° C. until the next analysis. The concentration of the lysozyme in the blood sera was measured using a commercial lysozyme (LZM) ELISA kit (Cusabio, China).
as §1, with “tunes,” for “times,”

[2] = Zeta potential measurement; type: physicochemical; details: solution alone, pH 7.4, 1 mg/mL, room temperature
Method: The zeta potential values of the PAU and PAUBSA conjugates were measured at room temperature by Metasizer Nano ZS instrument (Malvern Instrument). The solution concentrations for all samples were 1 mg/mL and their pH was adjusted to 7.4. The solutions were stabilized at room temperature for 20 minutes before measurement.

[3] = cited from earlier work
[4] = single subcutaneous injection of lysozyme-loaded sample

## lysozyme: chicken egg white lysozyme, model protein loaded into the hydrogels; also injected as plain solution
[1]; [4]
  duration of lysozyme release until serum lysozyme reached the normal level: within nine days
  initial burst release of lysozyme in vivo: initial burst was obviously observed
[1]; single subcutaneous injection, 10 mg/mL lysozyme
  time to reach peak lysozyme level: within two days
[1]; single subcutaneous injection, 10 mg/mL lysozyme in the preparation
  peak lysozyme level in blood: about 447 ng/mL
[2]
  zeta potential: 11.2 mV
[3]; in the presence of an anionic modified polymer
  temperature up to which thermal stability is maintained: up to 72 °C
[3]; up to 28 days
  bioactivity of lysozyme released from PEG-based hydrogels and other polymeric devices: about 95%
[3]; up to 50 days
  bioactivity of lysozyme released from PEG-based hydrogels and other polymeric devices: 100%
